The target of the assay is eJMC^Y859A (eJMC mutated in the first amino acid of the YXXΦ sequence) fused to GFP (Arabidopsis thaliana), Q9FL28. Nature of the assay: cell-based or functional assay.
eJMC^Y859A (eJMC mutated in the first amino acid of the YXXΦ sequence) fused to GFP (Arabidopsis thaliana), Q9FL28, sequence (Q9FL28 other isoform, or with tags, fused parts or gaps Y859A Y859A): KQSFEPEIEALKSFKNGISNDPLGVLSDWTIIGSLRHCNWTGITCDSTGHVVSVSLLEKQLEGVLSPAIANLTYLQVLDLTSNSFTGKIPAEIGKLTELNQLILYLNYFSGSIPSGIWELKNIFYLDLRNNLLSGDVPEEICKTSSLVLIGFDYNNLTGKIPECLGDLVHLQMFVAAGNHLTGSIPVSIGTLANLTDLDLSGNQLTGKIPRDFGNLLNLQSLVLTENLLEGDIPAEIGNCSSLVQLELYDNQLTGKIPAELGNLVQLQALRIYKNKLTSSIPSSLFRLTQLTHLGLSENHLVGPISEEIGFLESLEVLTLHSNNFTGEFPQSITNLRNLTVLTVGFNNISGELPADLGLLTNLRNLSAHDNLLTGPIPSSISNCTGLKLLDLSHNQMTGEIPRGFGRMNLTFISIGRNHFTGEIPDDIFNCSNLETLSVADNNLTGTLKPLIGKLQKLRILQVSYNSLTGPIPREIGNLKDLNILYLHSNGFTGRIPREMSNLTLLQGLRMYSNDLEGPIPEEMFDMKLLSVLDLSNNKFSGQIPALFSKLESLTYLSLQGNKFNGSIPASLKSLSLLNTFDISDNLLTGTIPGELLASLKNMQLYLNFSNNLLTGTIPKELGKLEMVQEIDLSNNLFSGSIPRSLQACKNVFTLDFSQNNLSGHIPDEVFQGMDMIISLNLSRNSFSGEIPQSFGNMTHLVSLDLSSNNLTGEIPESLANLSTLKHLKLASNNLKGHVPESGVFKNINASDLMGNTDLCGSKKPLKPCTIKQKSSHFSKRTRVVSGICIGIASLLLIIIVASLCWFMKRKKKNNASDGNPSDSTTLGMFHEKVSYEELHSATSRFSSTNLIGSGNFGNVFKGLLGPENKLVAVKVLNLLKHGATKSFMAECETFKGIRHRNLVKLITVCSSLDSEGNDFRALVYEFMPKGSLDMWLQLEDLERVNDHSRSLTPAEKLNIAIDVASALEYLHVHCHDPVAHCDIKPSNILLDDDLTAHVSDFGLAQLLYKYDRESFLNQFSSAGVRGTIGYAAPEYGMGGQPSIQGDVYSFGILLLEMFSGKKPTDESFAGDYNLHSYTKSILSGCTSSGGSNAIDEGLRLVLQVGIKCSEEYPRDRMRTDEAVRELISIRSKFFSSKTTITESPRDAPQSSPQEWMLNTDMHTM

In the case of QRLSTGSRINSAKDDAAGLQIA [flg22 (peptide derived from bacterial flagellin)], the ethylene accumulation, agroinfiltrated tobacco leaf explants, against the negative control is 4.8 times.

These data come from US20120137392A1.
